Results as given in paper PMC8786652 (Cell reports, 2022).

Molecular target: recombinant stabilized SARS-CoV-2 Spike ectodomain (S-6P, HexaPro Spike), his-tagged (SARS-CoV-2, Wuhan-Hu-1 (HexaPro …, stabilised))
Assay: SPR

B1: CV3-13 Fab (Fab, V domains shown)
VH: QVQLQQSGPGLVKPSQTLSLTCTVAGGSISSGTYYWSWIRQPAGKGLEWIGRIYTSGSANYNPSLKSRVTISVDTSKNQFSLRLSSVTAEDTAVYYCAREYSSSYYYFYYMDVWGKGTTVTVSS
VL: AIRMTQSPSSLSASVGDRVTITCQASQDISNYLNWYQQKPGKAPKLLIYVASNLETGVPSRFSGSGFGTDFTFTISSLQPEDIATYYCQQFDNLPYTFGQGTKLEIK
Kd: ~55 nM
